Numbered stars: 1 amine (or outer) side, 2 acyl side, 3 side chain; on linkers, the order of the positions; unused ones are H or OH. Bridge positions count the residues as written; N and C are the ends. Square brackets hold non-standard residues; d marks the D form. Ends that are not written are not given here. * marks the point of attachment. TATA = O=C(CC[*:1])N1CN(C(=O)CC[*:2])CN(C(=O)CC[*:3])C1; Pent4ynoyl = C#CCCC(=O)*; PYA = not defined here
Experiments:
[1] = target: T1, Human NKp46 Fc tag (Acro Biosystems, NC1-H5257) (human, UniProt O76036 22-255); assay: SPR Method 1 and/or 2
T1 construct: bought; also called Fc-tagged human NKp46
Procedure, shortened: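 Fc-tagged human NKp46 captured on anti-human IgG surface (500–1000 RU); compounds run in PBS-P+ with 2% DMSO at 25 °C, 50 μL/min, 60 s association, 400 s dissociation. Double-referenced, DMSO-corrected; KD from steady-state 1:1 fit, kinetic constants from kinetic 1:1 fit where appropriate.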

[2] = target: T2, recombinant human NKp46-Fc fusion biotinylated via Avi-tag (human, UniProt O76036 22-255, limits assumed, biotin on Avi-tag); assay: SPR Method 1
T2 construct: also called biotinylated NKp46
Procedure: SPR experiments were performed to determine kₐ (M⁻¹s⁻¹), kd (s⁻¹), KD (nM) values (where measurable) of various bicyclic peptides to immobilised NKp46.
For analysis of peptide binding to NKp46, a Biacore 3000 instrument was used with a Cytiva Streptavidin chip. Capture of the protein (recombinant human NKp46-Fc fusion biotinylated via Avi-tag) was carried out at 25° C. with HBS-N (10 mM HEPES, 0.15 M NaCl, pH 7.4) as the running buffer and biotinylated NKp46 was captured to a level of 400-800 RU using a dilution of protein to 0.2 μM in buffer. Buffer was then changed to PBS/0.05% Tween 20 and a dilution series of the peptides was prepared in this buffer with a final DMSO concentration of 0.5% with a top peptide concentration of 100 nM-5000 nM and 6 further 2 or 3-fold dilutions. The SPR analysis was run at 25° C. and a flow rate of 50 μl/min with 60 seconds association and 200-400 seconds dissociation time. Data were corrected for DMSO excluded volume effects. All data were double-referenced for blank injections and reference surface using standard processing procedures and data processing and kinetic fitting were performed using Scrubber software, version 2.0c (BioLogic Software). Data were fitted using simple 1:1 binding model allowing for mass transport effects where appropriate.

[3] = target: T3, human NKp46 on cells (CHO-K1/NKp46 cells; CD56+ NK cells of human PBMCs) (human, UniProt O76036 22-304); assay: Kd,app, flow cytometry CHO-K1/NKp46
T3 construct: whole, on cells; also called NCR1; CD355
Procedure: Plates were then incubated for 1 hour at room temperature in the dark. Post-incubation, the plates were centrifuged at 500 rpm for 5 minutes and supernatant discarded. Samples were then washed twice in 200 μL of 1× phosphate buffer saline (PBS; Gibco™ 10-010-023) at 500 rpm for 5 minutes. Cells were resuspended in 100 μL of PBS and transferred to a new 96-well V-bottom polypropylene plate (Greiner Bio-One 651201). Plates were centrifuged at 500 rpm for 5 minutes and supernatant discarded.
Preparation of samples for flow cytometry: Zombie Violet™ Fixable Viability Dye (BioLegend® 423113) was prepared as a 1:1000 dilution in PBS and 100 μL of viability dye was added to each well and incubated in the dark at 4° C. for 30 minutes. To ensure NKp46 expression, untreated CHO-K1/NKp46 cells were stained with either anti-human NKp46 or an isotype control. Antibody cocktails were prepared by diluting 1.5 μL of either, PE anti-human NKp46 (BioLegend® 331908; clone 9E2) or PE isotype control IgG1, K (BioLegend® 400112), per 100 μL of stain buffer (1×PBS supplemented with 2% FBS). Cells were resuspended in master mix cocktail (100 μL) and incubated at 4° C. for 30 minutes in the dark. Subsequently, cells were washed 3 times in 100 μL of stain buffer for 5 minutes at 500 rpm and supernatant was discarded. Cells resuspended in 200 μL of stain buffer were kept at 4° C. and in the dark until read by BD FACSCelesta™ flow cytometer.
The binding affinity of the bicyclic peptides were calculated using a four-parameter logistic regression using Prism GraphPad software.

[4] = target: T3, human NKp46 on cells (CHO-K1/NKp46 …); assay: Kd,app, flow cytometry, total CD56 population of human PBMCs
Procedure: Cells were resuspended in master mix cocktail (100 μL) and incubated at 4° C. for 30 minutes in the dark. Subsequently, cells were washed 3 times in 100 μL of stain buffer for 5 minutes at 500 rpm and supernatant was discarded.

T3 sequence (O76036 22-304): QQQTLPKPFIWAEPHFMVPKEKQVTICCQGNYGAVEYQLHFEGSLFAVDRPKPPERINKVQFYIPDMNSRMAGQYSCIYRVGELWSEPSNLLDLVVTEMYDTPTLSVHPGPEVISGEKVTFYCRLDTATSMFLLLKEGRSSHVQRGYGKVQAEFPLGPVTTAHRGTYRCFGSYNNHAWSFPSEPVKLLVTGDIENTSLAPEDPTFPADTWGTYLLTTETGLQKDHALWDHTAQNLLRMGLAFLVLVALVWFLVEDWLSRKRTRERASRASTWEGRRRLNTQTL
T2 sequence (O76036 22-255 limits assumed): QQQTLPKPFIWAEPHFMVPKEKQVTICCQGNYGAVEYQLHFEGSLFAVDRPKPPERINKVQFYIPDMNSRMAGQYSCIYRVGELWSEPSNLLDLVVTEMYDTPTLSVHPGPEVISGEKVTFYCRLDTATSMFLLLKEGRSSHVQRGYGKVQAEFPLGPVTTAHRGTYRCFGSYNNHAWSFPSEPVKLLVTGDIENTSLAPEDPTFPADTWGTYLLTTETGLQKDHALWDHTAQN
T1 sequence (O76036 22-255 limits assumed): as above

Binder	Kd [1] [nM]	Kd [2] [nM]	Kd [3] [nM]	Kd [4] [nM]
ACYLPDYLCGDEYCAK (C-terminal D-Lys(PYA), scaffold TATA) [BCY15452]	13	27	–	–
ACYLPDWLCGDEYCA[dK](Pent4ynoyl)-NH2 (linker 2-9-14 via TATA; N-terminus assumed; SMILES C#CCCC(=O)NCCCC[C@@H](NC(=O)[C@H](C)NC(=O)[C@@H]1CSCCC(=O)N2CN3CN(C2)C(=O)CCSC[C@H](NC(=O)[C@H](CC(C)C)NC(=O)[C@H](Cc2c[nH]c4ccccc24)NC(=O)[C@H](CC(=O)O)NC(=O)[C@@H]2CCCN2C(=O)[C@H](CC(C)C)NC(=O)[C@H](Cc2ccc(O)cc2)NC(=O)[C@@H](NC(=O)[C@H](C)N)CSCCC3=O)C(=O)NCC(=O)N[C@@H](CC(=O)O)C(=O)N[C@@H](CCC(=O)O)C(=O)N[C@@H](Cc2ccc(O)cc2)C(=O)N1)C(N)=O, scaffold TATA) [BCY15013]	59	138	–	–
ACYLPDWLCGDEYCA[dK](Pent4ynoyl)-NH2 (linker 2-9-14 via TATA; not fully specified; also: AF488 label on linker, homodimer of BCY15013; scaffold TATA) [BCY15455]	–	–	2.25	–

The next lines start with the values.

Kd [1] [nM]	Kd [2] [nM]	Kd [3] [nM]	Kd [4] [nM]	Binder
–	–	0.3	0.028	ACYLPDYLCGDEYCAK (not fully specified; C-terminal D-Lys(PYA) joined to N-(amine-PEG2)-N-bis(PEG3-azide) linker carrying AF488, homodimer of BCY15452; scaffold TATA) [BCY15663]
–	276	–	–	ACDLTTHNCQWGICAK(PYA) (linker 2-9-14 via TATA (inferred); reading uncertain, scaffold TATA) [BCY15686]
783	960	–	–	ACNLQAPCMQTGKVCAK (C-terminal Lys(PYA), scaffold TATA) [BCY15687]

From patent US20240108738A1 (Bicycle, published 2024)
